# US20210246451, “APTAMER FOR ADAMTS5 AND USE FOR APTAMER FOR ADAMTS5” (RIBOMIC INC., published 2021)
# T1: ADAMTS5 (UniProt Q9UNA0 Q9UNA0:262-622)
# T1 sequence: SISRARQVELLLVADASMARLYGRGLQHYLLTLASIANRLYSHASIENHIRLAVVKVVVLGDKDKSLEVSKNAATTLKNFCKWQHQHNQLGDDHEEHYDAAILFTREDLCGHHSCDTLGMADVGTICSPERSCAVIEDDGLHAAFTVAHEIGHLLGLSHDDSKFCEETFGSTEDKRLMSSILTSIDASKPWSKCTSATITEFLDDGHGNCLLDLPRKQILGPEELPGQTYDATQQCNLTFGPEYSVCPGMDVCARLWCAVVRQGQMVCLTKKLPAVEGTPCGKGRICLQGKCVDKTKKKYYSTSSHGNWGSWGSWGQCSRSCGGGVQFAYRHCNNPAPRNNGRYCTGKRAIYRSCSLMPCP
# How the values were obtained:
# [1] = target: T1, ADAMTS5; assay: inhibition; 5 nM ADAMTS5, aggrecan G1-IGD-G2 cleavage, 145 mM NaCl, Ca, Mg, 37 C; conditions: tags: R&D Systems; stem-internal loop-stem-loop (MFOLD)
# Description: (§1) Whether an aptamer having the nucleotide sequence shown in SEQ ID NO: 1 inhibits the enzyme activity of ADAMTS5 was evaluated by the following method. As a substrate of ADAMTS5, the G1-IGD-G2 domain of aggrecan (manufactured by R&D systems) was used. ADAMTS5 specifically cleaves in between the 392nd glutamic acid and the 393rd alanine in the G1-IGD-G2 domain and produces two fragments. These fragments have faster electrophoretic mobility than uncleaved G1-IGD-G2. Thus, the enzyme activity of ADAMTS5 can be measured by quantifying the band intensity of G1-IGD-G2 by SDS-PAGE electrophoresis. The assay was performed in a solution A buffer with a reaction mixture volume of 10 μL. First, a mixture (10 μL) of a nucleic acid and ADAMTS5 was prepared and incubated at 25° C. for 15 min. To a substrate solution (5 μL) diluted with solution A was added a mixture (5 μL) of the nucleic acid and ADAMTS5 to start the enzyme reaction. […] The staining was performed according to the manual of Sigma-Aldrich and detected using STORM840 manufactured by GE Healthcare. […] The amount of uncleaved substrate in each reaction solution was quantified from the band intensity and the standard curve. […] The inhibition rate of the test substance was calculated using the following equation.
# The concentration of an inhibitor necessary for inhibiting 50% of the enzyme activity (IC₅₀) was determined. […]
# [2] = target: T1, ADAMTS5; assay: inhibition; SDS-PAGE aggrecan cleavage, 5 nM enzyme; conditions: tags: R&D Systems
# Description: as §1, with “reaction. The final concentration of ADAMTS5 in the reaction solution was 5 nM, and the final substrate concentration was 50 μg/mL.” for “reaction.”, “equation. […]” for “equation.”
# [3] = target: T1, ADAMTS5; assay: inhibition; method 2 ELISA; 95.9% at 2 nM; conditions: tags: R&D Systems
# Description: (§2) The substrate cleavage efficiency of ADAMTS5 under these reaction conditions was 80-100%. The inhibition rate of the test substance was calculated using the following equation.
# (§3) On the other hand, the aptamers having the sequences shown by the sequences of SEQ ID NOs: 11(34)-11(35) and SEQ ID NO: 15 were evaluated by the following method (evaluation method 2). The cleavage reaction of the substrate (aggrecan G1-IGD-G2) by ADAMTS5 was performed in the same manner as in Example 1 except the following points. The differences are that the final concentrations of ADAMTS5 and the substrate were respectively 0.2 nM and 400 nM (48 μg/mL), and that the enzyme reaction time was 30 min. […] The cleaved substrate was quantified by a sandwich ELISA method using two kinds of anti-aggrecan antibodies. […] Using this, the amount of cleaved substrate can be quantified. […] The inhibition rate of the test substance was calculated using the following equation.
# (§4) The aptamers having the sequences shown in SEQ ID NOs: 28(l)-28(18) (SEQ ID NO: 28 lineage) and SEQ ID NOs: 29(1)-29(3) (SEQ ID NO: 29 lineage) were all produced by chemical synthesis. Whether these aptamers inhibit the enzyme activity of ADAMTS5 was evaluated by a method similar to that in Example 1 and Example 5. In the Table, “n.d.” means not determined. […] “n.d.” means not determined.
# [4] = target: T1, ADAMTS5; assay: inhibition; SDS-PAGE aggrecan cleavage; 81% inhibition in Table 9 method 1; conditions: tags: R&D Systems
# Description: as §1, with “As” for “Whether an aptamer having the nucleotide sequence shown in SEQ ID NO: 1 inhibits the enzyme activity of ADAMTS5 was evaluated by the following method. As”, “min.” for “min. To a substrate solution (5 μL) diluted with solution A was added a mixture (5 μL) of the nucleic acid and ADAMTS5 to start the enzyme reaction.”
# The aptamer having the sequence shown in SEQ ID NO: 26 was prepared by transcription by T7RNA polymerase, and the aptamers having the sequences shown in SEQ ID NOs: 27-29 were prepared by chemical synthesis. Whether these aptamers inhibit the enzyme activity of ADAMTS5 was evaluated by a method similar to that in Example 1. In the Table, “n.d.” means not determined.
# [5] = target: T1, ADAMTS5; assay: inhibition; method 2 ELISA; 98.1% at 2 nM; conditions: tags: R&D Systems
# Description: as §2, §3, §4
# [6] = target: T1, ADAMTS5; assay: inhibition; method 2 ELISA, 0.2 nM enzyme; method 1 77.5%; conditions: tags: R&D Systems
# Description: as §2, §3, §4
# [7] = target: T1, ADAMTS5; assay: inhibition; method 2 ELISA; method 1 92.9%; conditions: tags: R&D Systems
# Description: The heat-treated reaction solution was electrophoresed by 7.5% SDS-PAGE and stained with SYPRO Orange (manufactured by Sigma-Aldrich). The staining was performed according to the manual of Sigma-Aldrich and detected using STORM840 manufactured by GE Healthcare. […] The amount of uncleaved substrate in each reaction solution was quantified from the band intensity and the standard curve. The substrate cleavage efficiency of ADAMTS5 under these reaction conditions was 80-100%. The inhibition rate of the test substance was calculated using the following equation.
# On the other hand, the aptamers having the sequences shown by the sequences of SEQ ID NOs: 11(34)-11(35) and SEQ ID NO: 15 were evaluated by the following method (evaluation method 2). […] The cleaved substrate was quantified by a sandwich ELISA method using two kinds of anti-aggrecan antibodies. […] Using this, the amount of cleaved substrate can be quantified. […] The inhibition rate of the test substance was calculated using the following equation.
# The aptamers having the sequences shown in SEQ ID NOs: 28(l)-28(18) (SEQ ID NO: 28 lineage) and SEQ ID NOs: 29(1)-29(3) (SEQ ID NO: 29 lineage) were all produced by chemical synthesis. Whether these aptamers inhibit the enzyme activity of ADAMTS5 was evaluated by a method similar to that in Example 1 and Example 5.
binder,measurement,setting,value
"SEQ ID NO: 1 (ssRNA, 2'-F pyrimidines, 2'-OH purines; 3' A16 tail for SPR) RNA: GGGUACGACCGUCGUACGAUUGGGGCCUCCACAGCUGCUCAGCUUGGACUAAACCAAUAAGAGACUAACGCCUAGCGUAC",IC50,[1],16.8 nM
"UAUAGGGGCCUCCACAGCGUAAGCUUGGACUUAAACCAUA (ssRNA, 2'-OMe at 1-3,5,6,16-19,23-27,34-40; 2'-F other pyrimidines) [SEQ ID NO: 27]",IC50,[2],5.9 nM
"CGUAGGGGCCUCCACAGCGUAAGCUUGGACUUAAACCACG (ssRNA, as SEQ 28 plus 2'-OMe at 20-22,31; 5' 40 kDa branched PEG; 3' idT) [28(18)]",IC50,[3],0.029 nM
"CGUAGGGGCCUCCACAGCGUAAGCUUGGACUUAAACCACG (ssRNA, 2'-OMe at 1-3,5,6,16-19,23-27,34-40; 2'-F other pyrimidines) [SEQ ID NO: 28]",IC50,[4],3.4 nM
"CGUAGGGGCCUCCACAGCGUAAGCUUGGACUUAAACCACG (ssRNA, as SEQ 28 plus 2'-OMe at 20-22,31; 3' idT) [28(15)]",IC50,[5],0.084 nM
"CGUAGGGGCCUCCACAGCGUAAGCUUGGACUUAAACCACG (ssRNA, as SEQ 28 plus 2'-OMe at U31) [28(3)]",IC50,[6],0.108 nM
"CGUAGGGGCCUCCACAGCAUUCGCUUGGACACAAACCACG (ssRNA, as SEQ 29 plus 2'-OMe at A31; 3' idT) [29(1)]",IC50,[7],0.17 nM
